{
  "source": "paper PMC2390755",
  "biological_target": "TAP-tagged ISWI (D. melanogaster) (UniProt Q24368)",
  "sequence (Q24368 whole entry)": "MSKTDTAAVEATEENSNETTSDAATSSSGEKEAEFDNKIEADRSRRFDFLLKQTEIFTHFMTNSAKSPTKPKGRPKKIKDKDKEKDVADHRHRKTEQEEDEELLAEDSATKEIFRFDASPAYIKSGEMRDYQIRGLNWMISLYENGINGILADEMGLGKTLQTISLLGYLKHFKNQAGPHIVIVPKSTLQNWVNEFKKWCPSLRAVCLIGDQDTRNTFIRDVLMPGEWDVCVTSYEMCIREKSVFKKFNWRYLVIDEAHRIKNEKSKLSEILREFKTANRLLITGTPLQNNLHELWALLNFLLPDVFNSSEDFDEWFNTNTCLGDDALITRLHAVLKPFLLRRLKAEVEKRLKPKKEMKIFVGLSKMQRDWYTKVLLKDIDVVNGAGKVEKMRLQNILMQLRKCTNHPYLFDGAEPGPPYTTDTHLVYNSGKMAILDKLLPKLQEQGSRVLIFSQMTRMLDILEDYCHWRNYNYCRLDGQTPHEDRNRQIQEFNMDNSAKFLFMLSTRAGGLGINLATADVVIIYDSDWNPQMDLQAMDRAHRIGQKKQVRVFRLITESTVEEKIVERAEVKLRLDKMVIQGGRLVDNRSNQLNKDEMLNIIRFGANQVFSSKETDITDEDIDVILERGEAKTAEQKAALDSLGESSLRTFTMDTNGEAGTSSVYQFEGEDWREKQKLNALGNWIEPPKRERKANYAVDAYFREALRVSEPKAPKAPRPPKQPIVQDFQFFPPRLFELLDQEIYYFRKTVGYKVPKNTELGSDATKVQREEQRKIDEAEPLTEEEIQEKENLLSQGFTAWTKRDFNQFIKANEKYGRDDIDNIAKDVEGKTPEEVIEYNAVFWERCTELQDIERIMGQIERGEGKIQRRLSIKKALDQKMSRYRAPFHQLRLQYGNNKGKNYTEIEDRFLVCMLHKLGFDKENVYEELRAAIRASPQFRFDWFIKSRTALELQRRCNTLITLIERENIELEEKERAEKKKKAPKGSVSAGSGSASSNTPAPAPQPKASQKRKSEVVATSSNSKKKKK",
  "assay": "pull-down; tandem affinity purification of TAP-tagged ISWI from larval nuclear extracts (IPP150 buffer): IgG agarose, TEV cleavage, calmodulin resin, SDS elution; Western blot for ISWI, Sin3A, Rpd3; untagged extracts as control",
  "data": [
    {"substance": "Sin3A (natural protein)", "values": [
      {"measurement": "percent of the total protein in larval nuclear extract associated with ISWI (densitometry)", "result": 15, "unit": "%"}
    ]}
  ]
}
